Data published in paper PMC12711061, “Far-infrared irradiation attenuates vessel contraction by activating SERCA2 through disruption of SERCA2 and PLN interaction” (PLOS One, 2025).

Target: sarcoendoplasmic reticulum Ca2+-ATPase 2 (SERCA2), endogenous in rat VSMCs (rat (endogenous in rat aortic VSMCs), UniProt P11507 1-1043)
Test: cell-based or functional assay

Sequence of sarcoendoplasmic reticulum Ca2+-ATPase 2 (SERCA2), endogenous in rat VSMCs (P11507 whole entry): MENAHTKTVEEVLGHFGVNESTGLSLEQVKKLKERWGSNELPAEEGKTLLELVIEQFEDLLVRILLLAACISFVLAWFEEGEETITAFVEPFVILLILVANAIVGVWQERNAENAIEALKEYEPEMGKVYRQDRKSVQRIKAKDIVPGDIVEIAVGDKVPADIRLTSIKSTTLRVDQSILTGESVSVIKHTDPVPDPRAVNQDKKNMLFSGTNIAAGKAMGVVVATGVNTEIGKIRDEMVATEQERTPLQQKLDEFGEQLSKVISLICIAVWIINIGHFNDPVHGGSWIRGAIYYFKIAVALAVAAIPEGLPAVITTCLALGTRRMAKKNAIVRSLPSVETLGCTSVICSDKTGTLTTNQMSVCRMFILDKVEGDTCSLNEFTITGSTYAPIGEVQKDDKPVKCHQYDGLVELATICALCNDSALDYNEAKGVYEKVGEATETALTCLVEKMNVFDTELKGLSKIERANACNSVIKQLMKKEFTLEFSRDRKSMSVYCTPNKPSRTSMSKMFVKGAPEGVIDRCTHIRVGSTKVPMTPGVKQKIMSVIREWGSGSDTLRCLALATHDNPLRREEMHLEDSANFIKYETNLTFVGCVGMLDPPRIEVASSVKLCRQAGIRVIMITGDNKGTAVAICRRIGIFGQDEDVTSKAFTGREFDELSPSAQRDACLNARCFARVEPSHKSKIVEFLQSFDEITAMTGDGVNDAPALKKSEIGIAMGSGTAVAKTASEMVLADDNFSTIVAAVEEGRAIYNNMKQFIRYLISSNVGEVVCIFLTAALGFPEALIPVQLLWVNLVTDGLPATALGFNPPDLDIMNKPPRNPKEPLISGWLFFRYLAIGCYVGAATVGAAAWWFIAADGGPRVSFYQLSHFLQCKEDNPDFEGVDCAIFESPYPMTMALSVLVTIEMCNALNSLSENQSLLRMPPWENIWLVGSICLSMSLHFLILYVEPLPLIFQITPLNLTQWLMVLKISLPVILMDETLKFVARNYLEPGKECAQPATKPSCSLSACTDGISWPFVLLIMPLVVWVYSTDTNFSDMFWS

B1: phospholamban (PLN), endogenous in rat VSMCs (natural protein, rat (endogenous in rat aortic VSMCs), UniProt P61016 1-52, looked up)
chain: MEKVQYLTRSAIRRASTIEMPQQARQNLQNLFINFCLILICLLLICIIVMLL
For B1, the “Ca2+-dependent SERCA activity in VSMC lysate (enzyme-coupled spectrophotometric assay), FIR irradiation for 30 min against the RT control” value was 4.5 fold.
